Measured values from paper PMC12910678 (Nature, 2021).

Molecular target: SARS-CoV-2 RBD (residues 319-591) (SARS-CoV-2, Wuhan-Hu-1 (MN908947), UniProt P0DTC2)
Test: SPR

B1: C121 IgG (antibody, V domains shown)
VH: not shown
VL: QSALTQPASVSGSPGQSITISCTGTSSDVGSYNLVSWYQQHPGKAPKLMIYEGSKRPSGVSNRFSGSKSGNTASLTISGLQAEDEADYYCCSYAGSSTLVFGGGTKLTVL
B1: binds.
